Results on four molecules are retold here after US20110065198A1 (NEXIGEN, published 2011).

Test [1] concerns the target T1, glutathione-S-transferase (GST) alone, not fused to Vif (UniProt P08515 1-218 = GST). Briefly: GST pull-down, 35S in vitro translated protein, SDS-PAGE autoradiography, FIG. 3b lane 12.
Test [2] has as its target T1, glutathione-S-transferase (GST) alone, …. The test is described as follows: GST pull-down, 35S in vitro translated protein, SDS-PAGE autoradiography, FIG. 3b lane 13.
For test [3] the target is unchanged. The test is described as follows: GST pull-down, 35S in vitro translated protein, SDS-PAGE autoradiography, FIG. 3c lane 15.
Source text: (§1) Lanes 7 to 12 represent the respective pull-down results of the afore-mentioned radioactively labelled in vitro translated proteins by GST-Vif glutathione sepharose beads. […] Lanes 13 to 18 represent the control for the specificity of the GST pulldown experiment, i.e. for the binding specificity of the in vitro translated proteins to Vif. Therefore, lanes 13 to 18 in particular represent the results of GST pull-down, wherein GST was used alone, i.e. without being fused to Vif.
(§2) The binding of interaction candidates to Vif was performed with shaking for one hour at room temperature in binding buffer containing 20 mM NaCl, 20 mMTris pH 8.0, 0.5% NP40 and bovine serum albumine 100 μg/ml. After incubation beads were pelleted by spinning at 500 g for 2 min. and 4 washing steps with 1 ml washing buffer (binding buffer without serum albumin) were followed.
For test [4] the target is unchanged. Briefly: GST pull-down, 35S in vitro translated protein, SDS-PAGE autoradiography, FIG. 3c lane 14.
Source text: as §1, §2

T1 sequence (P08515 whole entry, the tested form may be a part): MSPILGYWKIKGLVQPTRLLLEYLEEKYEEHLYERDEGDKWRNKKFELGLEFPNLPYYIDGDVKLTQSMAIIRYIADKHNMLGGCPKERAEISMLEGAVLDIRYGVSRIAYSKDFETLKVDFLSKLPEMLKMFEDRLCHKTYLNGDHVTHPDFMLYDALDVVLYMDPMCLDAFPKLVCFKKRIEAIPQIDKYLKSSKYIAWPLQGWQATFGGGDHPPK

B1: in vitro translated HERC4 (other, human, UniProt Q5GLZ8 915-1057, looked up)
chain: AFHAGFHKVCGGKVLLLFQPNELQAMVIGNTNYDWKELEKNTEYKGEYWAEHPTIKIFWEVFHELPLEKKKQFLLFLTGSDRIPILGMKSLKLVIQSTGGGEEYLPVSHTCFNLLDLPKYTEKETLRSKLIQAIDHNEGFSLI
As for B1, the binding result in test [1] is “no binding”.

VLIVCVPNPPIDEKNATMPVTMLIRVKTSEDADELHKILLEKKDA (other) [in vitro translated NUP50]: the binding result in test [2] is “no binding”.

B2: in vitro translated PTGES3 (other)
chain: RRDYVFIEFCVEDSKDVNVNFEKSKLTFSCLGGSDNFKHLNEIDLFHCIDPNDSKHKRTDRSILCCLRKGESGQSWPRLTKERAKLNWLSVDFNNWKDWEDDSDEDMSNFDRFSEMMNNMGGDEDVDLPEVDGADDDSQDSDDEKMPDLE
For B2, the binding result in test [3] was “no binding”.

B3: in vitro translated TPT1 (other, human, UniProt P13693 1-172, looked up)
chain: MIIYRDLISHDEMFSDIYKIREIADGLCLEVEGKMVSRTEGNIDDSLIGGNASAEGPEGEGTESTVITGVDIVMNHHLQETSFTKEAYKKYIKDYMKSIKGKLEEQRPERVKPFMTGAAEQIKHILANFKNYQFFIGENMNPDGMVALLDYREDGVTPYMIFFKDGLEMEKC
notes: also called TCTP
Turning to B3, the binding result in test [4] is reported as “no binding”.
